B1: GST-HA-TAK1 (enzyme, UniProt O43318-2 1-579, looked up)
chain: MSTASAASSSSSSSAGEMIEAPSQVLNFEEIDYKEIEVEEVVGRGAFGVVCKAKWRAKDVAIKQIESESERKAFIVELRQLSRVNHPNIVKLYGACLNPVCLVMEYAEGGSLYNVLHGAEPLPYYTAAHAMSWCLQCSQGVAYLHSMQPKALIHRDLKPPNLLLVAGGTVLKICDFGTACDIQTHMTNNKGSAAWMAPEVFEGSNYSEKCDVFSWGIILWEVITRRKPFDEIGGPAFRIMWAVHNGTRPPLIKNLPKPIESLMTRCWSKDPSQRPSMEEIVKIMTHLMRYFPGADEPLQYPCQYSDEGQSNSATSTGSFMDIASTNTSNKSDTNMEQVPATNDTIKRLESKLLKNQAKQQSESGRLSLGASRGSSVESLPPTSEGKRMSADMSEIEARIAATTGNGQPRRRSIQDLTVTGTEPGQVSSRSSSPSVRMITTSGPTSEKPTRSHPWTPDDSTDTNGSDNSIPMAYLTLDHQLQPLAPCPNSKESMAVFEQHCKMAQEYMKVQTEIALLLQRKQELVAELDQDEKDQQNTSRLVQEHKKLLDENKSLSTYYQQCKKQLEVIRSQQQKRQGTS
notes: also called pGEX-4T-1-GST-HA-TAK1; MAP3K7
B2: Flag-TAK1, immunopurified (enzyme, UniProt O43318-2 1-579, looked up)
chain: B1 chain
notes: Probably expressed in HEK-293T cells like the other Flag constructs; also called MAP3K7; source: immunopurified, eluted with FLAG peptide

How the values were obtained:
[1] = molecular target: T1, Flag-tagged TBC1 Domain Family Member 25 (TBC1D25) (UniProt Q3MII6-1 1-688); assay: pull-down; GST-HA-tagged protein from E. coli extracts held on glutathione-sepharose 4B beads, washed with PBS, incubated 4 h at 4 C with immunopurified Flag-tagged protein; washed with NaCl wash buffer; Western blot; GST tag as negative control; conditions: both partners purified
T1 construct: Vector pcDNA5-flag or pHAGE-3xflag; The reverse primer carries the stop codon, so the tag is probably N-terminal; also called Flag-TBC1D25; OATL1; source: HEK-293T, transfected, in lysate (co-IP); immunopurified and eluted with FLAG peptide (GST pull-down)
T1 sequence (looked up): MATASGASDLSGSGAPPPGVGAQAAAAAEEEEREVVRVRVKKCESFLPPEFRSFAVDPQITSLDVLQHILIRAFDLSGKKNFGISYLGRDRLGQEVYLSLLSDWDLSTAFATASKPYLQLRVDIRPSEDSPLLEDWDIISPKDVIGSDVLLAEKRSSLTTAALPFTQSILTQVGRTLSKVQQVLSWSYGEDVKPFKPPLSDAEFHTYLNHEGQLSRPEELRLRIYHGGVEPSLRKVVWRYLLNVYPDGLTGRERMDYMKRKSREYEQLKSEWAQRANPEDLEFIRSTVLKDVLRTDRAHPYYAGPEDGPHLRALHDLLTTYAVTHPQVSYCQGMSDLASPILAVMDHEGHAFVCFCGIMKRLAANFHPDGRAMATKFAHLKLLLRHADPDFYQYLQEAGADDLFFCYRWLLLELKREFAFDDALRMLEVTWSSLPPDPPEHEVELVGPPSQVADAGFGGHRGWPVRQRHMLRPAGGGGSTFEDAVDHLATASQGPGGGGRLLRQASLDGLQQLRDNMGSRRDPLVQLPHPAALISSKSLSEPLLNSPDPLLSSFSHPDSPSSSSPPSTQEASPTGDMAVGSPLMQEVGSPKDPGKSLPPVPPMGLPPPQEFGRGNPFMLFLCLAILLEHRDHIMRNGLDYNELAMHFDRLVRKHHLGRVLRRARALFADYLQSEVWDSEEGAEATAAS

GST-HA-TBC1D25 = molecular target: T2, GST-HA-TBC1D25 (UniProt Q3MII6-1 1-688); assay: as above; conditions: both partners purified
T2 construct: also called OATL1
T2 sequence (looked up): T1 sequence (looked up)

| Binder | binding result [1] | binding result (GST-HA-TBC1D25) |
| --- | --- | --- |
| B1 | binds |  |
| B2 |  | binds |

From publication PMC7085222, “TBC1D25 Regulates Cardiac Remodeling Through TAK1 Signaling Pathway” (International Journal of Biological Sciences, 2020)
